Where “and” joins values, the source holds several entries; their conditions need not be identical. Equal entries are not always repeated.
Legend:
CD40 = CD40 (UniProt P25942); assay: cell-based or functional assay
Jurkat cells [1] = assay: Linker length, ER regulated CD40L, % CD40L positive Jurkat cells; type: cell-based
Protocol: Jurkat cells were lentivirally transduced and 24 hours after transduction were treated with DMSO or 1 μM Bazedoxifene for another 24 hours and analyzed by flow cytometry for surface expression of CD40L. […] In Table 33, SR indicates stabilization ratio.

[2] = test system: T cells (CD4 and CD8 positive); assay: Bazedoxifene dose response, CD40L MFI in CD4 and CD8 positive T cells (day 4, freeze/thaw, restimulation); type: cell-based
Protocol: Dose response with Bazedoxifene in T cells were conducted for OT-001966, OT-001967, OT-001666. Expression of CD40L was measured at (a) day 4 after transduction, (b) after freezing and thawing the cells or (c) after freezing and thawing the cells followed by restimulation with CD3/CD28 beads. The CD40L MFI (median fluorescence intensity) within CD4 and CD8 positive subpopulations is shown in Table 34 and Table 35 respectively.

Jurkat cells [3] = assay: CD40L shedding ELISA of supernatant, Jurkat cells with or without CD40-Fc receptor; type: cell-based; design: CD40L levels in supernatant: unit not given here; details: 6 hours
Protocol: Sheddases e.g. ADAM10/17 present in the tumor microenvironment can cleave CD40L thereby preventing the successful activation of CD40 by CD40L. […] OT-001669 which has a deletion of amino acids 1-13 of CD40L was designed to reduce internalization and OT-001668 which has a deletion of amino acids 110-116 of CD40L was designed to remove the ADAM10/17 sites. Jurkat cells stably expressing the full length construct OT-001661, OT-001669, or OT-001668 were cultured for 6 hours with 1.25 μg/ml recombinant human (h) or mouse (m) CD40-Fc receptor or left untreated and tested using an ELISA assay (Table 15).

T cells (CD4+ and CD8+) = assay: Co-expression of CD40L and CD19 CAR on transduced T cells; type: cell-based
Text: The results for CD4+ and CD8+ cells and total cells are shown below.

Nalm6-luc = Nalm6-luc tumor model, Bioluminescence Intensity (BLI); type: in vivo, mice; details: CD40L only T cells, no CAR+ number
Protocol: (§1) Increased expression of CD40L on CD19 positive CART cells may increase the efficacy of CAR+ T cells in vivo. To test this, 8-week old mice were injected with Nalm6-luc (1 million per mouse). On day 6, Nalm6 tumor burden was measured and mice were grouped to ensure that all groups had similar tumor sizes. Body weight and Bioluminescence Intensity (BLI) were measured twice a week. Blood and plasma were also collected for cytokine analysis, CD40L and IL12.

hCD45+ cells = hCD45+ cells in blood by FACS 14 days after T-cell infusion; type: in vivo, mice; details: cell number not given
Protocol: as §1
Human cells were analyzed by FACS (hCD45+) from the blood 14 days after T-cell infusion, which equals 21 days after tumor implant. The results are shown in Table 22 where M indicates million.

HEK293T cells = assay: Surface expression of CD40L trimerization mutants, transfected HEK293T cells (FACS); type: cell-based, human; details: transiently transfected HEK293T cells
Protocol: Mutations were engineered within CD40L payload to reduce the binding affinity of CD40L payload for the CD40L endogenously expressed by cells. Constructs OT-002078, OT-002079, OT-002080, OT-002081, OT-002082 were generated with the CD40L trimerization mutants. HEK293T cells were transiently transfected with the constructs and CD40L expression was measured by FACS.

Jurkat cells [4] = assay: In vivo CD40L regulation in Jurkat cells harvested from bone marrow of NSG mice; details: constitutive construct, Jurkat cells from bone marrow, day 16
Text: Jurkat cells stably expressing OT-001661, OT-002034 were intravenously infused into 8-week old NSG mice (20 million cells per mouse). Starting by day 15, mice were orally dosed according to the study design shown in Table 42 and Jurkat cells were harvested on day 16 from the bone marrow and analyzed by FACS. In Tables 41 and 42, TMP refers to Trimethoprim and all dosing is relative to “0 hr” time point on day 16. The results are shown in Table 43 and Table 44 where “EV” refers to empty vector control.

CD40, sequence (P25942 21-277 limits assumed): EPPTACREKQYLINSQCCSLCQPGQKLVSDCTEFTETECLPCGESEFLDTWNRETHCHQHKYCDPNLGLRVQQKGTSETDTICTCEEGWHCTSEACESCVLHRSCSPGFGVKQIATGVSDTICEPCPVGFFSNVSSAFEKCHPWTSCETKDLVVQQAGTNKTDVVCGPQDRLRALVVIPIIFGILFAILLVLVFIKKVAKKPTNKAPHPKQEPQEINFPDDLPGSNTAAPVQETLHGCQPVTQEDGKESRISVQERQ

B1: OT-001666 (Met; ER (305-549 of WT, L384M, N413D, M421G, G521R, Y537S); Histidine; CD40L; stop) (ligand)
chain: MSLALSLTADQMVSALLDAEPPILYSEYDPTRPFSEASMMGLLTNLADRELVHMINWAKRVPGFVDLTLHDQVHLLECAWMEILMIGLVWRSMEHPGKLLFAPNLLLDRDQGKCVEGGVEIFDMLLATSSRFRMMNLQGEEFVCLKSIILLNSGVYTFLSSTLKSLEEKDHIHRVLDKITDTLIHLMAKAGLTLQQQHQRLAQLLLILSHIRHMSNKRMEHLYSMKCKNVVPLSDLLLEMLDAHRLHMIETYNQTSPRSAATGLPISMKIFMYLLTVFLITQMIGSALFAVYLHRRLDKIEDERNLHEDFVFMKTIQRCNTGERSLSLLNCEEIKSQFEGFVKDIMLNKEETKKENSFEMQKGDQNPQIAAHVISEASSKTTSVLQWAEKGYYTMSNNLVTLENGKQLTVKRQGLYYIYAQVTFCSNREASSQAPFIASLCLKSPGRFERILLRAANTHSSAKPCGQQSIHLGGVFELQPGASVFVNVTDPSQVSHGTGFTSFGLLKL
SEAP reporter of HEK-Blue CD40 cells co-cultured 24 hours with transduced Jurkat cells plus 1 µM Bazedoxifene, given as Soluble CD40L (pg/ml) against a recombinant soluble CD40L standard (CD40): 1820 pg/mL | Percent of Jurkat cells expressing CD40L (Jurkat cells [1]; 1 μM Bazedoxifene): 30% | SR (Jurkat cells [1]; 1 μM Bazedoxifene versus DMSO, % CD40L positive Jurkat cells): 3 | Percent of Jurkat cells expressing CD40L (Jurkat cells [1]; DMSO): 10% | CD40L expression (MFI) ([2]; CD4+ cells, Day 4, Bazedoxifene 0.01 nM): 372 | CD40L expression (MFI) ([2]; CD4+ cells, Day 4, Bazedoxifene 0.1 nM): 420 | CD40L expression (MFI) ([2]; CD4+ cells, Day 4, Bazedoxifene 1 nM): 427 | CD40L expression (MFI) ([2]; CD4+ cells, Day 4, Bazedoxifene 10 nM): 476 | CD40L expression (MFI) ([2]; CD4+ cells, Day 4, Bazedoxifene 100 nM): 732 | CD40L expression (MFI) ([2]; CD4+ cells, Day 4, Bazedoxifene 1000 nM): 1397 | CD40L expression (MFI) ([2]; CD4+ cells, Day 4, Bazedoxifene 10000 nM): 1274 | CD40L expression (MFI) ([2]; CD4+ cells, Post Thaw, Bazedoxifene 0.01 nM): 134 | CD40L expression (MFI) ([2]; CD4+ cells, Post Thaw, Bazedoxifene 0.1 nM): 138 | CD40L expression (MFI) ([2]; CD4+ cells, Post Thaw, Bazedoxifene 1 nM): 145 | CD40L expression (MFI) ([2]; CD4+ cells, Post Thaw, Bazedoxifene 10 nM): 162 | CD40L expression (MFI) ([2]; CD4+ cells, Post Thaw, Bazedoxifene 100 nM): 208 | CD40L expression (MFI) ([2]; CD4+ cells, Post Thaw, Bazedoxifene 1000 nM): 241 | CD40L expression (MFI) ([2]; CD4+ cells, Post Thaw, Bazedoxifene 10000 nM): 537 | CD40L expression (MFI) ([2]; CD4+ cells, Restim, Bazedoxifene 0.01 nM): 592 | CD40L expression (MFI) ([2]; CD4+ cells, Restim, Bazedoxifene 0.1 nM): 658 | CD40L expression (MFI) ([2]; CD4+ cells, Restim, Bazedoxifene 1 nM): 682 | CD40L expression (MFI) ([2]; CD4+ cells, Restim, Bazedoxifene 10 nM): 658 | CD40L expression (MFI) ([2]; CD4+ cells, Restim, Bazedoxifene 100 nM): 953 | CD40L expression (MFI) ([2]; CD4+ cells, Restim, Bazedoxifene 1000 nM): 1688 | CD40L expression (MFI) ([2]; CD4+ cells, Restim, Bazedoxifene 10000 nM): 1577 | CD40L expression (MFI) ([2]; CD8+ cells, Day 4, Bazedoxifene 0.01 nM): 165 | CD40L expression (MFI) ([2]; CD8+ cells, Day 4, Bazedoxifene 0.1 nM): 171 | CD40L expression (MFI) ([2]; CD8+ cells, Day 4, Bazedoxifene 1 nM): 172 | CD40L expression (MFI) ([2]; CD8+ cells, Day 4, Bazedoxifene 10 nM): 176 | CD40L expression (MFI) ([2]; CD8+ cells, Day 4, Bazedoxifene 100 nM): 313 | CD40L expression (MFI) ([2]; CD8+ cells, Day 4, Bazedoxifene 1000 nM): 601 | CD40L expression (MFI) ([2]; CD8+ cells, Day 4, Bazedoxifene 10000 nM): 404 | CD40L expression (MFI) ([2]; CD8+ cells, Post Thaw, Bazedoxifene 0.01 nM): 103 | CD40L expression (MFI) ([2]; CD8+ cells, Post Thaw, Bazedoxifene 0.1 nM): 105 | CD40L expression (MFI) ([2]; CD8+ cells, Post Thaw, Bazedoxifene 1 nM): 107 | CD40L expression (MFI) ([2]; CD8+ cells, Post Thaw, Bazedoxifene 10 nM): 117 | CD40L expression (MFI) ([2]; CD8+ cells, Post Thaw, Bazedoxifene 100 nM): 170 | CD40L expression (MFI) ([2]; CD8+ cells, Post Thaw, Bazedoxifene 1000 nM): 213 | CD40L expression (MFI) ([2]; CD8+ cells, Post Thaw, Bazedoxifene 10000 nM): 326 | CD40L expression (MFI) ([2]; CD8+ cells, Restim, Bazedoxifene 0.01 nM): 238 | CD40L expression (MFI) ([2]; CD8+ cells, Restim, Bazedoxifene 0.1 nM): 244 | CD40L expression (MFI) ([2]; CD8+ cells, Restim, Bazedoxifene 1 nM): 263 | CD40L expression (MFI) ([2]; CD8+ cells, Restim, Bazedoxifene 10 nM): 253 | CD40L expression (MFI) ([2]; CD8+ cells, Restim, Bazedoxifene 100 nM): 354 | CD40L expression (MFI) ([2]; CD8+ cells, Restim, Bazedoxifene 1000 nM): 567 | CD40L expression (MFI) ([2]; CD8+ cells, Restim, Bazedoxifene 10000 nM): 458

B2: OT-001661: constitutively expressed full length CD40L construct (protein)
chain: MHMIETYNQTSPRSAATGLPISMKIFMYLLTVFLITQMIGSALFAVYLHRRLDKIEDERNLHEDFVFMKTIQRCNTGERSLSLLNCEEIKSQFEGFVKDIMLNKEETKKENSFEMQKGDQNPQIAAHVISEASSKTTSVLQWAEKGYYTMSNNLVTLENGKQLTVKRQGLYYIYAQVTFCSNREASSQAPFIASLCLKSPGRFERILLRAANTHSSAKPCGQQSIHLGGVFELQPGASVFVNVTDPSQVSHGTGFTSFGLLKL
CD40L levels in supernatant (Jurkat cells [3]; 1.25 μg/ml hCD40-Fc): 3599.72 | CD40L levels in supernatant (Jurkat cells [3]; 1.25 μg/ml mCD40-Fc): 2589.21 | CD40L levels in supernatant (Jurkat cells [3]; Untreated): 1382.06 | Percent of Cells co-expressing CD40L and CD19 CAR (T cells (CD4+ and CD8+); All Cells): 0% | Percent of Cells co-expressing CD40L and CD19 CAR (T cells (CD4+ and CD8+); CD4+): 0% | Percent of Cells co-expressing CD40L and CD19 CAR (T cells (CD4+ and CD8+); CD8+): 0% | Average BLI values (Nalm6-luc; Day 6 (before T cell injection on day 7)): 2.04E+06 | Average BLI values (Nalm6-luc; Day 13): 2.69E+08 | Average BLI values (Nalm6-luc; Day 20): 2.52E+09 | Average BLI values (Nalm6-luc; Day 25): 5.99E+09 | Average BLI values (Nalm6-luc; Day 28): 1.04E+10 | Percentage hCD45+ cells, Average (hCD45+ cells): 0.002% | Percentage hCD45+ cells, Individual values (hCD45+ cells): 0.00249% and 0.00331% and 0.00198% and 0% | % CD40L positive (HEK293T cells): 43.3% | CD40L MFI values (Jurkat cells [4]; Average): 586.5 | Percent CD40L positive cells (Jurkat cells [4]; Average): 58.9% | CD40L MFI values (Jurkat cells [4]; individual mice): 507 and 572 and 660 and 607 | Percent CD40L positive cells (Jurkat cells [4]; individual mice): 52.5% and 57.5% and 64.2% and 61.4%

— patent US20220175781A1, “CD40L COMPOSITIONS AND METHODS FOR TUNABLE REGULATION” (Obsidian Therapeutics, Inc., priority 2019, published 2022)
